Source: patent US20260266848A1, “COMPOSITIONS AND METHODS FOR DIAGNOSING AND TREATING DYSTONIA” (Duke University, priority 2023, published 2026)
Where two headings read alike, the source gives them in different places.

B1: Ube2n (protein, UniProt P61089 1-152, looked up)
Ubiquitin-conjugating enzyme …: MAGLPRRIIKETQRLLAEPVPGIKAEPDESNARYFHVVIAGPQDSPFEGGTFKLELFLPEEYPMAAPKVRFMTKIYHPNVDKLGRICLDILKDKWSPALQIRTVLLSIQALLSAPNPDDPLANDVAEQWKTNEAQAIETARAWTRLYAMNNI
B2: Hnrnph1 (protein, UniProt O35737 1-449, looked up)
Heterogeneous nuclear …: MMLGAEGGEGFVVKVRGLPWSCSADEVQRFFSDCKIQNGAQGIRFIYTREGRPSGEAFVELESEDEVKLALKKDRETMGHRYVEVFKSNNVEMDWVLKHTGPNSPDTANDGFVRLRGLPFGCSKEEIVQFFSGLEIVPNGITLPVDFQGRSTGEAFVQFASQEIAEKALKKHKERIGHRYIEIFKSSRAEVRTHYDPPRKLMAMQRPGPYDRPGAGRGYNSIGRGAGFERMRRGAYGGGYGGYDDYNGYNDGYGFGSDRFGRDLNYCFSGMSDHRYGDGGSTFQSTTGHCVHMRGLPYRATENDIYNFFSPLNPVRVHIEIGPDGRVTGEADVEFATHEDAVAAMSKDKANMQHRYVELFLNSTAGASGGAYEHRYVELFLNSTAGASGGAYGSQMMGGMGLSNQSSYGGPASQQLSGGYGGGYGGQSSMSGYDQVLQENSSDFQSNIA
B3: Mdk (protein, UniProt P12025 23-140, looked up)
Midkine: KKKEKVKKGSECSEWTWGPCTPSSKDCGMGFREGTCGAQTQRVHCKVPCNWKKEFGADCKYKFESWGACDGSTGTKARQGTLKKARYNAQCQETIRVTKPCTSKTKSKTKAKKGKGKD
B4: Pld3 (protein, UniProt O35405 1-488, looked up)
5'-3' exonuclease PLD3: MKPKLMYQELKVPVEEPAGELPLNEIEAWKAAEKKARWVLLVLILAVVGFGALMTQLFLWEYGDLHLFGPNQRPAPCYDPCEAVLVESIPEGLEFPNATTSNPSTSQAWLGLLAGAHSSLDIASFYWTLTNNDTHTQEPSAQQGEEVLQQLQALAPRGVKVRIAVSKPNGPLADLQSLLQSGAQVRMVDMQKLTHGVLHTKFWVVDQTHFYLGSANMDWRSLTQVKELGVVMYNCSCLARDLTKIFEAYWFLGQAGSSIPSTWPRSFDTRYNQETPMEICLNGTPALAYLASAPPPLCPSGRTPDLKALLNVVDSARSFIYIAVMNYLPTMEFSHPRRFWPAIDDGLRRAAYERGVKVRLLISCWGHSDPSMRSFLLSLAALHDNHTHSDIQVKLFVVPTDESQARIPYARVNHNKYMVTERASYIGTSNWSGSYFTETAGTSLLVTQNGHGGLRSQLEAVFLRDWESPYSHDLDTSANSVGNACRLL
B5: Pura (protein, UniProt P42669 2-321, looked up)
Transcriptional activator …: ADRDSGSEQGGAALGSGGSLGHPGSGSGSGGGGGGGGGGGGSGGGGGAPGGLQHETQELASKRVDIQNKRFYLDVKQNAKGRFLKIAEVGAGGNKSRLTLSMSVAVEFRDYLGDFIEHYAQLGPSQPPDLAQAQDEPRRALKSEFLVRENRKYYMDLKENQRGRFLRIRQTVNRGPGLGSTQGQTIALPAQGLIEFRDALAKLIDDYGVEEEPAELPEGTSLTVDNKRFFFDVGSNKYGVFMRVSEVKPTYRNSITVPYKVWAKFGHTFCKYSEEMKKIQEKQREKRAACEQLHQQQQQQQEETTAATLLLQGEEEGEED
B6: Pdia4 (protein, UniProt P08003 21-638, looked up)
Protein disulfide-isomerase A4: AASAGDAHEDTSDTENATEEEEEEDDDDLEVKEENGVWVLNDGNFDNFVADKDTVLLEFYAPWCGHCKQFAPEYEKIASTLKDNDPPIAVAKIDATSASMLASKFDVSGYPTIKILKKGQAVDYDGSRTQEEIVAKVREVSQPDWTPPPEVTLSLTKDNFDDVVNNADIILVEFYAPWCGHCKKLAPEYEKAAKELSKRSPPIPLAKVDATEQTDLAKRFDVSGYPTLKIFRKGRPFDYNGPREKYGIVDYMIEQSGPPSKEILTLKQVQEFLKDGDDVVIIGLFQGDGDPAYLQYQDAANNLREDYKFHHTFSPEIAKFLKVSLGKLVLTHPEKFQSKYEPRFHVMDVQGSTEASAIKDYVVKHALPLVGHRKTSNDAKRYSKRPLVVVYYSVDFSFDYRAATQFWRNKVLEVAKDFPEYTFAIADEEDYATEVKDLGLSESGEDVNAAILDESGKKFAMEPEEFDSDTLREFVTAFKKGKLKPVIKSQPVPKNNKGPVKVVVGKTFDAIVMDPKKDVLIEFYAPWCGHCKQLEPIYTSLGKKYKGQKDLVIAKMDATANDITNDQYKVEGFPTIYFAPSGDKKNPIKFEGGNRDLEHLSKFIDEHATKRSRTKEEL
B7: Rab6a (protein, UniProt P35279 2-208, looked up)
Ras-related protein Rab-6A: SAGGDFGNPLRKFKLVFLGEQSVGKTSLITRFMYDSFDNTYQATIGIDFLSKTMYLEDRTVRLQLWDTAGQERFRSLIPSYIRDSTVAVVVYDITNVNSFQQTTKWIDDVRTERGSDVIIMLVGNKTDLADKRQVSIEEGERKAKELNVMFIETSAKAGYNVKQLFRRVAAALPGMESTQDRSREDMIDIKLEKPQEQPVNEGGCSC
B8: Gsto1 (protein, UniProt O09131 2-240, looked up)
Glutathione S-transferase …: SGESSRSLGKGSAPPGPVPEGQIRVYSMRFCPFAQRTLMVLKAKGIRHEVININLKNKPEWFFEKNPLGLVPVLENSQGHLVTESVITCEYLDEAYPEKKLFPDDPYKKARQKMTLESFSKVPPLIASFVRSKRKEDSPNLREALENEFKKLEEGMDNYKSFLGGDSPSMVDYLTWPWFQRLEALELKECLAHTPKLKLWMAAMQQDPVASSHKIDAKTYREYLNLYLQDSPEACDYGL
B9: Srsf7 (protein, UniProt Q8BL97 1-267, looked up)
Serine/arginine-rich splicing …: MRSSARGRPLQAATAFFLSLFFFLRRFERGFWLWGGDSETKVYVGNLGTGAGKGELERAFSYYGPLRTVWIARNPPGFAFVEFEDPRDAEDAVRGLDGKVICGSRVRVELSTGMPRRSRFDRPPARRPFDPNDRCYECGEKGHYAYDCHRYSRRRRSRSRSRSHSRSRGRRYSRSRSRSRGRRSRSASPRRSRSVSLRRSRSASLRRSRSGSIIGSRYFQSRSRSRSRSRSISRPRSSRSKSRSPSPKRSRSPSGSPHRSASPERMD
B10: Tra2b (protein, UniProt P62996 2-288, looked up)
Transformer-2 protein homolog …: SDSGEQNYGERESRSASRSGSAHGSGKSARHTPARSRSKEDSRRSRSKSRSRSESRSRSRRSSRRHYTRSRSRSRSHRRSRSRSYSRDYRRRHSHSHSPMSTRRRHVGNRANPDPNCCLGVFGLSLYTTERDLREVFSKYGPIADVSIVYDQQSRRSRGFAFVYFENVDDAKEAKERANGMELDGRRIRVDFSITKRPHTPTPGIYMGRPTYGSSRRRDYYDRGYDRGYDDRDYYSRSYRGGGGGGGGWRAAQDRDQIYRRRSPSPYYSRGGYRSRSRSRSYSPRRY
B11: Ssb (protein, UniProt P32067 1-415, looked up)
Lupus La protein homolog: MAENGDNEKMTALEAKICHQIEYYFGDFNLPRDKFLKEQIKLDEGWVPLETMIKFNRLNRLTTDFNVIVQALSKSKAKLMEVSADKTKIRRSPSRPLPEVTDEYKNDVKNRSVYIKGFPTDATLDDIKEWLDDKGQILNIQMRRTLHKTFKGSIFAVFDSIQSAKKFVEIPGQKYKDTNLLILFKEDYFAKKNEERKQSKVEAKLKAKQEHEGRHKPGSTETRALEGKMGCLLKFSGDLDDQTCREDLHFLFSNHGEIKWVDFARGAKEGIILFKEKAKEALEKARNANNGNLLLRNKKVTWKVLEGHAEKEALKKITDDQQESLNKWKSKGGHAGGRFKGSHVFTAARRFKGKGKGNRPGYAGAPKGRGQFHGRRTRFDDDDRRRGPMKRGRDGRDREEPASKHKKRENGARDK
B12: C1qtnf3 (protein, UniProt Q9BXJ4 23-246, looked up)
Complement C1q tumor necrosis …: QDEYMESPQTGGLPPDCSKCCHGDYSFRGYQGPPGPPGPPGIPGNHGNNGNNGATGHEGAKGEKGDKGDLGPRGERGQHGPKGEKGYPGIPPELQIAFMASLATHFSNQNSGIIFSSVETNIGNFFDVMTGRFGAPVSGVYFFTFSMMKHEDVEEVYVYLMHNGNTVFSMYSYEMKGKSDTSSNHAVLKLAKGDEVWLRMGNGALHGDHQRFSTFAGFLLFETK

Assays:
DYT-TOR1A MEF EVs = assay: Quantitative LC-MS/MS proteomics of EVs from drug-treated DYT-TOR1A MEF cultures (ritonavir, salubrinal); assay type: cell-based, mouse; set-up: key to RTV Corrective Direction / RTV Corrective Direction, Grwd1 / RTV Corrective Direction, Srrm2 / RTV Corrective Direction, Rbm17 / RTV Corrective Direction, Dcaf8 / RTV Corrective Direction, Edil3 / RTV Corrective Direction, Timp3 / RTV Corrective Direction, Heatr3 / RTV Corrective Direction, Brd4 / RTV Corrective Direction, P3h4 / RTV Corrective Direction, Pacsin3 / RTV Corrective Direction, Naa50 / RTV Corrective Direction, Lpar6 / RTV Corrective Direction, Ndrg1 / RTV Corrective Direction, Kntc1 / RTV Corrective Direction, Cdk11b / RTV Corrective Direction, Sumo1 / RTV Corrective Direction, Lsm4 / RTV Corrective Direction, Hmga2 / RTV Corrective Direction, Cstf1 / RTV Corrective Direction, Tes / RTV Corrective Direction, Sbno1 / RTV Corrective Direction, Unc119b / RTV Corrective Direction, Cfdp1 / RTV Corrective Direction, Sec61b: YES = protein abundance effect opposite to DYT/WT; conditions: for DYT + RTV/DYT Cohen's d: ritonavir (RTV)-treated DYT vs DYT
WT MEF EVs = assay: Quantitative LC-MS/MS proteomics of EVs from ISRIB-treated WT MEF cultures; assay type: cell-based, mouse; conditions: EV protein abundance, ISRIB-treated WT vs WT
[1] = EV protein abundance, DYT + RTV (ritonavir) vs DYT, direction compared with DYT/WT

Molecule	RTV Corrective Direction (DYT-TOR1A MEF EVs; [1])	DYT + RTV/DYT Cohen's d (DYT-TOR1A MEF EVs; EV protein abundance)	WT + ISRIB/WT Cohen's d (WT MEF EVs)	RTV Corrective Direction (DYT-TOR1A MEF EVs)
B1	YES	6.02	0.41	–
B2	YES	4.23	2.47	–
B3	YES	3.64	1.33	–
B4	YES	0.61	1.18	–
B5	–	2.36	0.52	YES
B6	YES	2.25	1.37	–
B7	YES	3.14	0.44	–
B8	YES	3.45	0.04	–
B9	YES	2.91	0.13	–
B10	YES	3.28	0.54	–
B11	–	2.79	0.41	YES
B12	YES	−3.24	−0.18	–
